From patent US20110124556 (published 2011)
Non-standard residues stand in square brackets, D forms with d. No end group written: not given here. Tyr(3-I) = N[C@@H](Cc1ccc(O)c(I)c1)C(=O)O; Tic = O=C(O)[C@@H]1Cc2ccccc2CN1; Ac6c = NC1(C(=O)O)CCCCC1; βturn = not defined here

B1: S256 (peptide)
chain: [Ac6c]CLEE[dW]GASL[Tic]QCSG
modifications: not fully specified (bridges); printed as Acy-CLEEwGASL-Tic-QCSG; cysteine pairing not given here
B2: S423 (peptide)
chain 1: ESFYDWFERQLGK
chain 2: ACAWPTYWNCG
modifications: ends and bridges not checked; also: two chains joined C-terminus to C-terminus, the link is not given here
B3: S581 (peptide)
chain 1: SLEEEWAQIESEVWGR-βturn
chain 2: ESFYDWFERQLG
modifications: not fully specified; printed as SLEEEWAQIESEVWGR-βturn-ESFYDWFERQLG; ends and bridges not checked
B4: S432 (peptide)
chain 1: ESFYDWFERQLGGGGK
chain 2: CEVYGRGCPS
B5: S444 (peptide)
chain 1: ESFYDWFERQLGGGGK
chain 2: VQCEVYGRGCPS
B6: S588 (peptide)
chain 1: LEEEWAQVECEV
chain 2: [Tyr(3-I)]GRGCSGSLDESFYDWFERQLG
modifications: ends and bridges not checked

The binders below were run against human insulin receptor (HIR) (human, UniProt P06213) (assay: competition).

Point of comparison: SLEEEWAQIECEVWGRCWHHSFYDWFERQL [S594], Kd 0.071 nM. Against it:
- SIEEEWAQIKCDVWGRGCSESFYDWFERQL [S556] — 2.2-fold lower, 0.032 nM
- SLEEEWAQVECEVYGRGCPSESFYDWFVRQLG [S555] — within 1.5-fold, 0.057 nM
- CGFHENFYDWFVRQVSKK (not fully specified; ends and bridges not checked) [S171] — far higher, 29000 nM
- B1 — far higher, 90000 nM
- B2 — 870-fold higher, 62 nM
- SLNFYDALQLLAKK [S119] — 250-fold higher, 18 nM
- B3 — 5.9-fold lower, 0.012 nM
- SLEEEWAQIQHELWPVEKGESFYDWFERQL (not fully specified (N-terminus); ends and bridges not checked) [S605] — within 1.5-fold, 0.094 nM
- B4 — 2500-fold higher, 180 nM
- SLEEEWAQIECEVWGRGCPSESFYDWFERQL [S558] — 3.7-fold lower, 0.019 nM
- SLEEEWAQIQCEVWGRGCPSESFYDWFERQL (not fully specified (N-terminus); ends and bridges not checked) [S606] — 18-fold lower, 0.004 nM
- B5 — 2700-fold higher, 190 nM
- DWLQRNANFYDWFVAELX (listing feature) [S294] — 1800-fold higher, 130 nM
- WGRSFYRYFETLLAQGI [S261] — higher, > 20000 nM
- SLEEEWAQVECEVYGRGCPPGLLDESFYHWFDRQLR [S553] — 9.7-fold lower, 0.0073 nM
- AFYDWFAK [S180] — higher, > 2000 nM
- QAPSNFYDWFVREWDEE [S287] — 830-fold higher, 59 nM
- [dF][dH][dE][dN][dF][dY][dD][dW][dF][dV][dR][dQ][dV][dS][dK][dK] [S114] — far higher, 83000 nM
- B6 — 2.5-fold higher, 0.18 nM
- Ac-SIEEEWAQIKCDVWGRGSESFYDWFERQL (ends and bridges not checked) [S600] — 9.3-fold lower, 0.0076 nM
